± gives the standard deviation of the averaged measurements.
These sequences were tested on ATP (assay: switch fluorescence ratio, 500 uM ATP over buffer (Cy3 cluster intensity, sum of 5 cycles each) (fold (ratio)); higher = stronger signal-on switching upon ATP binding; sequences stand for … in TCGTCGGCAGCGTCAGATGTGTATAAGAGACAGTTTTTTTTTTTTTTTTTTTTTTTTT…TC). Details: aptamer strand: ATP DNA aptamer (quencher-CACCTGGGGGAGTATTGCGGAGGAAGG + anchor), 100 nM annealed; ATP concentration: 500 uM.
Outline: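 Clusters carrying Cy3-labelled switching strands on a modified Illumina MiSeq flow-cell were annealed to 100 nM quencher-labelled ATP aptamer and imaged in selection buffer. They were imaged again after 15 min with 500 uM ATP at 22 °C, over five buffer/ATP cycles with NaOH stripping and re-annealing in between. For each cluster, the fluorescence ratio is the summed Cy3 intensity of the target cycles divided by that of the buffer cycles, averaged per switch-domain sequence. Clusters outside 100-1000 RFU were left out.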
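Note: ATP exposure 15 min at 22 °C before imaging.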

| Sequence | switch fluorescence ratio |
| --- | --- |
| CTGAACAGTA | 1.02 ± 0.033 |
| ACACAAGGTC | 1.03 ± 0.041 |
| TTATTTTTTG | 1 ± 0.056 |
| TGGATTGTCC | 1.03 ± 0.012 |
| CAAGTGCTGT | 0.98 ± 0.033 |
| GAAGTATGCA | 1.04 ± 0.031 |
| CCTTGGGTTT | 1.08 ± 0.13 |
| ATTTGGGTGT | 1.05 ± 0.02 |
| AGTTTGCCAG | 0.96403 ± 0.00025 |
| TTTAAAGAGG | 0.9813 ± 0.0042 |
| TTTTTTTGAA | 0.979 ± 0.02 |
| AATGGGTCAT | 1.004 ± 0.0013 |
| TCTCACTGCC | 1.08 ± 0.028 |
| TTGTTGATTA | 0.9935 ± 0.0089 |
| CGGGGGAGAA | 1 ± 0.034 |
| CGGGTGTTTT | 1.055 ± 0.0089 |
| ATCGTGTAGG | 0.99 ± 0.11 |
| AGGGAAATAA | 0.987 ± 0.026 |
| GGAAAATCAA | 0.9812 ± 0.0078 |
| GAATCGATAC | 1.76 ± 0.084 |
| AAGGAGAGTG | 0.991 ± 0.028 |
| ATCACGGGCT | 0.967 ± 0.027 |
| CAGTGAGCTC | 0.981 ± 0.022 |
| ACTTACTTTA | 1.18 ± 0.04 |
| TTGAGCAAGG | 1.06 ± 0.089 |

| Sequence | switch fluorescence ratio |
| --- | --- |
| CAGTTCCATG | 0.9857 ± 0.0091 |
| CGTTGTGGAA | 1.006 ± 0.0056 |
| ATTGCATGCA | 0.985 ± 0.026 |
| AACGTTGGTA | 0.989 ± 0.034 |
| GGGGTTGGCC | 0.986 ± 0.018 |
| GTTTTGTCAA | 1.02 ± 0.0038 |
| CGCTACAATG | 1.0456 ± 0.00099 |
| GGGAAGGGAT | 0.981 ± 0.031 |
| TGATGTTACG | 0.9871 ± 0.0046 |
| GCTGCACGGG | 1.01 ± 0.03 |
| GCCACAAATT | 1.01 ± 0.033 |
| AGGCCGTGGC | 0.968 ± 0.035 |
| GGTTAGATTG | 1.01 ± 0.006 |
| CATGTCGTTT | 1 ± 0.017 |
| GGGAAATTCG | 1.012 ± 0.0039 |
| ATAATTTGCC | 1.01 ± 0.05 |
| GATTCTTGTC | 1.01 ± 0.035 |
| CTATATTAGG | 0.997 ± 0.032 |
| GGAATTACTT | 0.987 ± 0.031 |
| CCTTTTTATG | 1.024 ± 0.0028 |
| TTGTACCAAA | 0.992 ± 0.047 |
| GGGTAAGAAG | 0.971 ± 0.013 |
| AGGCTGAGCG | 1.01 ± 0.022 |
| CGGTAACTGG | 1.01 ± 0.048 |
| GCTGGAGGGT | 0.997 ± 0.019 |

| Sequence | switch fluorescence ratio |
| --- | --- |
| ACGCGGTCGG | 1.08 ± 0.044 |
| CCTCGGGAAA | 1.06 ± 0.1 |
| AGTTGCACGT | 0.954 ± 0.041 |
| TGAAATTTAG | 1.01 ± 0.047 |
| TCGGTGGGGG | 1.01 ± 0.051 |
| CGTTTGTCTA | 1.01 ± 0.051 |
| TTTTTGAGGG | 1.01 ± 0.04 |
| TAGGGACGGC | 1.07 ± 0.095 |
| GGGGGGAAGA | 0.994 ± 0.025 |
| GGTGACAGGC | 1.04 ± 0.08 |
| TTTTTAGAAA | 0.971 ± 0.011 |
| GAGCTTTTTT | 0.9986 ± 0.0034 |
| ATTCTTGTTC | 0.981 ± 0.05 |
| GGACAGGGGA | 1.87 ± 1.2 |
| ACTTGATAGG | 1.03 ± 0.041 |
| AGAGTAAAGC | 0.996 ± 0.02 |
| AGTGTTTGTT | 0.9995 ± 0.0052 |
| GAAATCTTTT | 1.07 ± 0.17 |
| GGGGATATTT | 1 ± 0.014 |
| TCAGTAACGC | 1.05 ± 0.013 |
| CCCTTGTCCG | 1.05 ± 0.037 |
| TTTTAGTTTA | 1.01 ± 0.031 |
| GGATTATACA | 1.02 ± 0.002 |
| TTCGAAGGGC | 1.14 ± 0.16 |
| AGATGCAGTA | 1.01 ± 0.028 |

| Sequence | switch fluorescence ratio |
| --- | --- |
| TTTTAACTGG | 0.988 ± 0.034 |
| TGTTTTTGGG | 0.989 ± 0.029 |
| TTAGGTTGTA | 0.974 ± 0.025 |
| TTCCATGTGT | 1.06 ± 0.044 |
| CAGATAGAAG | 0.999 ± 0.012 |
| GCAGGGATCA | 0.9813 ± 0.0013 |
| TCAAATCGGT | 1.03 ± 0.042 |
| GGTCGATTCG | 0.961 ± 0.013 |
| TTCAGGGTTC | 0.966 ± 0.027 |
| TTGAAGGATG | 0.997 ± 0.029 |
| GCATTTGGTC | 1.01 ± 0.023 |
| CTATCGTGGT | 0.9554 ± 0.0033 |
| GCTTGGGGTT | 0.98 ± 0.021 |
| TTGGTAAAGG | 0.999 ± 0.048 |
| CATATGCTGC | 1.0589 ± 0.00039 |
| AGGGGGCATG | 0.986 ± 0.023 |
| AGCACGTTCT | 0.993 ± 0.1 |
| CCTAATTGAA | 0.9728 ± 0.0041 |
| GGTATGGGTC | 0.947 ± 0.034 |
| TCTAACATGC | 1.15 ± 0.12 |
| GAAGAAGGTG | 1.43 ± 0.018 |
| AGTGTGTGGC | 1.01 ± 0.016 |
| GAAAAGGTCA | 1.04 ± 0.019 |
| ATTAGGGACT | 0.992 ± 0.035 |
| TATCCCATAC | 1.49 ± 0.073 |

| Sequence | switch fluorescence ratio |
| --- | --- |
| GTTGGGACTG | 1 ± 0.055 |
| TTTTATTTCA | 0.991 ± 0.021 |
| ATGTTAGATT | 0.996 ± 0.029 |
| CATGTCCAGG | 1.46 ± 0.059 |
| GAACCGATGT | 1.009 ± 0.0089 |
| AGGGAAACTA | 0.999 ± 0.013 |
| CATGGGTGCG | 1.02 ± 0.014 |
| GGGGGATT | 0.996 ± 0.02 |
| ATGTAAGGAG | 1.02 ± 0.018 |
| AATGTATCGT | 0.978 ± 0.021 |
| TCGATCTTGG | 0.988 ± 0.011 |
| AGGGATTAGT | 0.991 ± 0.022 |
| CGAAGGTAGG | 0.9843 ± 0.0049 |
| ACTCGTAATC | 3.04 ± 0.48 |
| ATCTAGGGTG | 1.08 ± 0.012 |
| TTAGCATTTA | 1.03 ± 0.013 |
| TTAGTTAGGT | 1.004 ± 0.0046 |
| GGGCAAACAG | 0.959 ± 0.029 |
| TAACGTATGG | 1.03 ± 0.021 |
| TGGTGTTTTT | 0.992 ± 0.027 |
| TTAACAAGGA | 1.018 ± 0.0085 |
| CACGGGGGAA | 1.03 ± 0.029 |
| ATATCCGCTG | 1.52 ± 0.071 |
| TTCAATTTTT | 0.997 ± 0.021 |
| TCAATCGGAA | 1.06 ± 0.014 |

| Sequence | switch fluorescence ratio |
| --- | --- |
| TGCTTCTCGA | 0.991 ± 0.031 |
| ACCTTTAAGC | 1.106 ± 0.01 |
| TCTGGAGCCG | 1.04 ± 0.022 |
| CAGCCTTGTG | 1.013 ± 0.0079 |
| AACCTTTTTA | 1.01 ± 0.045 |
| TAGGAGGCGG | 0.958 ± 0.039 |
| GACACGGGGT | 1 ± 0.071 |
| TAGCGATGGG | 1.01 ± 0.017 |
| ATTTTTGCGT | 1.01 ± 0.041 |
| ACTGTACGGC | 1.46 ± 0.016 |
| ATAGTGCTGT | 0.97717 ± 0.00097 |
| CGTGAAGATG | 0.9674 ± 0.0068 |
| AACAGCGGGA | 1.08 ± 0.068 |
| ATCATAAGGT | 1.02 ± 0.02 |
| TTGAGGATTG | 1 ± 0.018 |
| GTTGGAATGG | 1.01 ± 0.014 |
| TAGTATGTGT | 0.9576 ± 0.0043 |
| TTTGAGATAG | 1.02 ± 0.012 |
| CATGTGCACC | 1.014 ± 0.0092 |
| AAATTTTTCT | 1.05 ± 0.07 |
| TGGTTTTATT | 1.01 ± 0.043 |
| AGGTGGTACA | 0.993 ± 0.03 |
| CGAGTTTTGC | 1.03 ± 0.026 |
| CGATTCTCAA | 1.021 ± 0.0006 |
| TCTGGTACAG | 0.969 ± 0.02 |

| Sequence | switch fluorescence ratio |
| --- | --- |
| GTTATTGCGT | 0.982 ± 0.05 |
| ATGGGGTCAG | 0.993 ± 0.021 |
| GGGGGAGAAA | 1.02 ± 0.033 |
| AAGACGGATT | 0.9945 ± 0.0066 |
| GCGTTAGCTT | 0.982 ± 0.069 |
| GATTCATCTA | 0.983 ± 0.029 |
| TAATAGGGGT | 1 ± 0.018 |
| GGGCTAAGGG | 0.985 ± 0.056 |
| GTCGGGATAT | 1.03 ± 0.018 |
| TGTCAGGGCC | 1.04 ± 0.053 |
| TATAGGTGCG | 0.9891 ± 0.0049 |
| CGTTTTATTG | 0.99 ± 0.049 |
| TGTGTCATGT | 0.989 ± 0.013 |
| GTTTTAAACA | 1 ± 0.034 |
| TACTTTCTGC | 1.02 ± 0.066 |
| ATTGGGGGTG | 1.04 ± 0.012 |
| GCAGGGTCTG | 1.02 ± 0.083 |
| ATGTTTTGGG | 1.01 ± 0.024 |
| GTTGTTGAAG | 1.009 ± 0.0011 |
| TGGCTTGGCG | 1.01 ± 0.072 |
| AAATCTCTTT | 1 ± 0.014 |
| CCTAAAGTTT | 0.983 ± 0.014 |
| GTTGTAATAG | 1.09 ± 0.031 |
| TTGCCTGCGG | 0.999 ± 0.0067 |
| AAGATAATAG | 0.993 ± 0.024 |

| Sequence | switch fluorescence ratio |
| --- | --- |
| TGGGTCACAA | 0.992 ± 0.024 |
| GGGCACTCTT | 1 ± 0.011 |
| GGCAGGTGTT | 1.73 ± 0.85 |
| ATCAGAGCTG | 0.964 ± 0.032 |
| GGCTCAGTTT | 0.979 ± 0.026 |
| TTCTGTTGGT | 1.02 ± 0.087 |
| TTTTCGGGTG | 1.05 ± 0.024 |
| TTGGGCGGGT | 0.994 ± 0.041 |
| TAGTTCAGGA | 1.05 ± 0.036 |
| AGGGGGGAGA | 0.994 ± 0.026 |
| GAATGTATCG | 0.981 ± 0.021 |
| AGTAAGTCGG | 0.975 ± 0.022 |
| CAGATGAGGG | 1.005 ± 0.0057 |
| TCCGGGCCCA | 1.038 ± 0.0023 |
| TCGGAGACTC | 1.05 ± 0.022 |
| GGGGGGTATG | 0.982 ± 0.022 |
| TGGGATTATT | 1.02 ± 0.019 |
| TTTTGTGCTG | 0.984 ± 0.052 |
| TGGTGGTGCA | 1.04 ± 0.039 |
| TCGGGATTGA | 0.98 ± 0.013 |
| CGGGTATAGC | 0.996 ± 0.05 |
| ACTTAGTTTT | 1.0386 ± 0.00082 |
| ATCTACCATG | 1.03 ± 0.04 |
| CCTTATAGTT | 0.995 ± 0.023 |
| TTAATCTTTC | 1.09 ± 0.05 |

Source: the supplement of paper PMC10126150
